Data on one molecule can be found in patent US20180094053A1 (XOMA US, published 2018).

Assay [1] has as its target T1, Recombinant human IL-2 (human, UniProt P60568 21-153). Nature of the assay: cell-based or functional assay.
For assay [2], the target named is T1, Recombinant human IL-2. Nature of the assay: cell-based or functional assay. The source holds these as a separate data set.
Another assay concerns the target T2, CHOk1-IL2Ralpha.
T2 construct: clone number not given; also called CHO/Rα; CHO/IL-2 Rα
T2 chain: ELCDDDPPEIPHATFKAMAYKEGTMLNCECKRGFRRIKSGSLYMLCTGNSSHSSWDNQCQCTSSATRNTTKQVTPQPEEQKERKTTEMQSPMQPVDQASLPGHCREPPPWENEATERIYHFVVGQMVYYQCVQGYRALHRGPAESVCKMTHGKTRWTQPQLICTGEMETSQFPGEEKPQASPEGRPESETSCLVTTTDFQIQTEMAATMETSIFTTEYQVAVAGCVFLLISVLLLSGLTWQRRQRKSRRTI
Nature of the assay: flow cytometry, IgG binding (MFI); antibody titrated on CHOk1-IL2Ralpha cells without IL2. The procedure:
After phage-derived antibody fragments were reformatted into full-length human IgGs, the purified antibodies were screened on CHO/Rα, CHO/Rβ, CHO/Rβγ, and parental CHO-K1 cells grown and stained as described above. […] This was allowed to incubate at 4° C. for 1 to 1.5 hours. Bound antibody was detected by the addition of anti-human heavy chain and light chain (Jackson Immuno Research #109-136-088) at 1:1000 and incubating at 4° C. for 30 minutes to 1 hour. Samples were analyzed using BD FACs Canto flow cytometer.
For orientation: A flow cytometer gives signals particle by particle.

Assay [3] addresses T1, Recombinant human IL-2. Nature of the assay: cell-based or functional assay. The source holds these as a separate data set.
Assay [4] has as its target T1, Recombinant human IL-2. Nature of the assay: cell-based or functional assay. The source holds these as a separate data set.
Assay [5] has as its target T1, Recombinant human IL-2. Nature of the assay: SPR (Biacore 4000), IgG captured on anti-human IgG Fc, rhIL-2 0.11-10 nM. The procedure:
(§1) Antibody affinities were measured by SPR using the Biacore 4000 with a standard capture methodology. Briefly, anti-human IgG (Fc specific) from an anti-human antibody capture kit (Biacore) was immobilized onto spots 1, 2, 4, and 5 of all four flow cells of a CM-5 sensor chip by amine coupling according to the manufacturer's instructions. Running buffer was HBS-EP+ with 1% BSA. […] Data were analyzed using the Biacore 4000 Evaluation software.
For orientation: Surface plasmon resonance follows binding to a sensor surface in real time, without labels.

The next assay concerns the target T3, Rabbit IL-2 (rabbit, UniProt O77620 21-153, limits assumed).
T3 sequence (looked up): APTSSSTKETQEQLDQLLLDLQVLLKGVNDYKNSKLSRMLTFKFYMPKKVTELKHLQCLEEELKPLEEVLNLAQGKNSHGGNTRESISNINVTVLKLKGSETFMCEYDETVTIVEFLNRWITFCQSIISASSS
Nature of the assay: SPR (Biacore 4000), IgG captured on anti-human IgG Fc, IL-2 30 nM to 1 nM; affinity estimate. The procedure: as §1
(§2) These sequences were imported into vector NTI® (Lifetech) and aligned using the alignx tool.

The target in a further assay is T4, Mouse IL-2 (mouse, UniProt P04351 21-169).
T4 sequence (looked up): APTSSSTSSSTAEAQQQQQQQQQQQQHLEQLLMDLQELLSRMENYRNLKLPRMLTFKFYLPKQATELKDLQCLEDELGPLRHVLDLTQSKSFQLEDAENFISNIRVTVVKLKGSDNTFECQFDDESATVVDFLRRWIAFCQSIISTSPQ
The assay is described as above. The procedure:
as §1, §2

Assay [6] deals with T1, Recombinant human IL-2. Nature of the assay: cell-based or functional assay. The source holds these as a separate data set.

B1: XPA.92.019 (antibody, V domains shown)
VH: EVQLVESGGGLVQPGRSLRLSCAASGFTFSYYGMHWVRQAPGKGLEWVADISNDGSNKYYADSVKGRFTISRDNSKTTLYLQMNSLRPEDTAVYYCATPYYDSSGLDYWGQGTLVTVSS
VL: SYELTQPPSVSVSPGQTARITCSGDALPKRFAYWYQQKAGQAPVLVIYEDNKRPSGIPETLSGSSSGTTATLTISGAQEEDEADYYCYSTDNTGGLWVFGGGTKLTVLG
notes: Tested as purified full-length human IgG; also called mAb19
In the case of B1, in the assay with Recombinant human IL-2 [1], the “EC50 of IL-2-induced pSTAT5a,b in CD25-depleted human primary NK cells with 100 nM antibody” value stood at 5040 pM, the “EC50 of IL-2-induced pSTAT5a,b in NK-92 cells with 100 nM antibody” value was 900 pM and the “EC50 of IL-2-induced pSTAT5a,b in mouse primary NK cells with 100 nM antibody” value stood at 1720 pM. Moreover, the “Fold EC50 shift of IL-2-induced proliferation, CTLL-2 (muRαβγ)” value with Recombinant human IL-2 [2] was 130 fold. Moreover, the binding result in the assay with CHOk1-IL2Ralpha is given as “no binding”. Moreover, in the assay with Recombinant human IL-2 [3], the “pSTAT5a,b Ratio of EC50s (Rαβγ/Rβγ), human cells” value amounted to 24; the “pSTAT5a,b fold EC50 shift, Human Primary NK cells (huRβγ)” value is 40 fold; the “pSTAT5a,b fold EC50 shift, NK92 (huRαβγ)” value came out at 966 fold. For the same molecule, in the assay with Recombinant human IL-2 [4], the “pSTAT5a,b Ratio of EC50s (Rαβγ/Rβγ), murine cells” value stood at 35; the “pSTAT5a,b fold EC50 shift, CTLL-2 (muRαβγ)” value amounted to 523 fold; the “pSTAT5a,b fold EC50 shift, Mouse Primary NK cells (muβγ)” value turned out to be 15 fold. Moreover, in the assay with Recombinant human IL-2 [5], the Kd (in general, the concentration at which binding is half-saturated) was 0.0095 nM; the koff (as a rule, a measure of how fast the partners let go of each other) worked out at 3.4e-05 s⁻¹; the kon – broadly, the rate constant with which the complex forms – worked out at 3.7e+06 M⁻¹ s⁻¹. Further, in the assay with Rabbit IL-2, the Kd was 0.2 nM. For the same molecule, the Kd with Mouse IL-2 is 100 nM. For the same molecule, in the assay with Recombinant human IL-2 [6], the “Fold EC50 shift of IL-2-induced proliferation, BaF3/IL-2 HuRβγ” value stood at 5.2 fold; the “Fold EC50 shift of IL-2-induced proliferation, NK92 (huRαβγ)” value was determined as 33 fold; the “Ratio (huRαβγ/Rβγ) of fold EC50 shifts, proliferation” value worked out at 6.
